Test results reported in patent US20250376535A1 (BEIJING STARMAB BIOMED TECHNOLOGY, published 2025).

What was measured:
[1] = biological target: T1, recombinant human CD40-Fc (human, UniProt P25942 21-193); experiment: ELISA, CD40-Fc coated, VHH at 8 nM
T1 construct: also called rh-CD40-Fc; CD40-hFc
Method: (§1) After four times washing with PBST, the plate was incubated with detecting antibody anti-his-HRP (1:4000 dilution) 100 μl per well for one hour with shaking at 60 rpm. The plate was developed with 100 μL of TMB per well in the dark and then stopped by 50 μL of stop solution per well.

[2] = biological target: T1, recombinant human CD40-Fc; experiment: ELISA, CD40-Fc coated, VHH at 40 nM
Method: as §1

[3] = biological target: T1, recombinant human CD40-Fc; experiment: ELISA, CD40-Fc coated, VHH at 1.6 nM
Method: as §1

[4] = biological target: T1, recombinant human CD40-Fc; experiment: ELISA, CD40-Fc coated, VHH at 200 nM
Method: as §1

[5] = biological target: T1, recombinant human CD40-Fc; experiment: ELISA, CD40-Fc coated, VHH at 0.32 nM
Method: as §1

[6] = biological target: T1, recombinant human CD40-Fc; experiment: ELISA, CD40-Fc coated, VHH at 1000 nM
Method: as §1

[7] = biological target: T1, recombinant human CD40-Fc; experiment: ELISA, CD40-Fc coated, VHH at 0.013 nM
Method: as §1

[8] = biological target: T1, recombinant human CD40-Fc; experiment: ELISA, CD40-Fc coated, VHH at 0.064 nM
Method: as §1

[9] = biological target: T1, recombinant human CD40-Fc; experiment: ELISA, CD40-Fc coated, VHH at 0.0026 nM
Method: as §1

[10] = biological target: T2, Human CD40 antigen (recombinant, BLI) (human, UniProt P25942 21-193); experiment: BLI, VHH-His on anti-His tips, human CD40 in solution;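 also: kinetics measured at 30 °C in PBS pH 7.2, association tracked for 200 s, then dissociation followed in PBS lacking CD40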
T2 construct: also called rh-CD40
Method: Bio-Layer Interferometry (BLI) kinetic binding analysis. […] Affinity measurements were performed with Gator equipped with Anti-Penta-His capture (HIS1K) biosensor tips. The assay was performed at 30° C. in 1×PBS buffer (Gibco®, PBS pH7.2). Samples were agitated at 1000 rpm. Prior to analysis, sensors were humidified for 15 min. […] Sensor data was collected throughout the experiments, processed, and analyzed using the Gator data analysis software.
Briefly, purified anti-CD40 VHH was tested for its binding capacity with HIS1K sensor tips. Tips were loaded using 20 μg/ml of anti-CD40 VHH. Loading proceeded for 300 sec resulting in capture levels of between 1.8 and 2 nm. […] Association was initiated and monitored for 200 sec, after which tips were transferred to 1×PBS buffer without CD40 protein in order to monitor dissociation.

4-1BB Fc [11] = biological target: T3, 4-1BB Fc (human, UniProt Q07011 24-183); experiment: ELISA, 4-1BB Fc coated, VHH at 5 nM
T3 construct: also called rh-41BB; 41BB-hFc
Method: (§2) After four rounds of washing with PBST, the plate was incubated with detecting antibody anti-his-HRP (1:4000 dilution) 100 μl per well for one hour with shaking at 60 rpm. The plate was developed with 100 μL of TMB per well in the dark and then stopped by 50 μL of stop solution per well. […] Data was analyzed using GraphPad Prisma 9.1.

4-1BB Fc [12] = biological target: T3, 4-1BB Fc; experiment: ELISA, 4-1BB Fc coated, VHH at 50 nM
Method: as §2

4-1BB Fc [13] = biological target: T3, 4-1BB Fc; experiment: ELISA, 4-1BB Fc coated, VHH at 0.5 nM
Method: as §2

4-1BB Fc [14] = biological target: T3, 4-1BB Fc; experiment: ELISA, 4-1BB Fc coated, VHH at 500 nM
Method: as §2

4-1BB Fc [15] = biological target: T3, 4-1BB Fc; experiment: ELISA, 4-1BB Fc coated, VHH at 0.05 nM
Method: as §2

4-1BB Fc [16] = biological target: T3, 4-1BB Fc; experiment: ELISA, 4-1BB Fc coated, VHH at 0.005 nM
Method: as §2

4-1BB Fc [17] = biological target: T3, 4-1BB Fc; experiment: ELISA, 4-1BB Fc coated, VHH at 0.0005 nM
Method: as §2

4-1BB Fc [18] = biological target: T3, 4-1BB Fc; experiment: ELISA, 4-1BB Fc coated, VHH at 0.00005 nM
Method: as §2

Human 41BB antigen (BLI) = biological target: T4, Human 41BB antigen (BLI) (human, UniProt Q07011 24-183); experiment: BLI, VHH-His on anti-His tips, human 41BB in solution;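 also: association tracked for 200 s, after which dissociation was followed in 1×PBS free of 41BB protein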
T4 construct: also called 41BB protein
Method: Tips were loaded using 20 μg/ml of anti-41BB VHH. Loading proceeded for 300 sec resulting in capture levels of between 1.8 and 2 nm. […] Association was initiated and monitored for 200 sec, after which tips were transferred to 1×PBS buffer without 41BB protein, in order to monitor dissociation.

human serum albumin = biological target: T5, human serum albumin (human, UniProt P02768 25-609); experiment: BLI (Gator), His-tagged VHH on anti-His sensor, HSA 100 nM in solution
T5 construct: also called HSA
Method: (§3) Kinetic binding analysis of MSA VHHs were performed with Gator Prime system equipped with analyze software. […] The experiments were done at 30° C. Prior to analysis, sensors were socked in Q buffer for 600 sec with shaking at 1000 rpm, and then 2 μM of HIS tagged MSA VHHs were loaded to Anti-His sensors with shaking at 400 rpm for 120 sec. Loaded sensors were transferred into Q buffer for 60 sec. Association of HSA or MSA at 100 nM was initiated and monitored for 120-180 sec with shaking at 1000 rpm, and finally dissociation in Q buffer for 120-180 sec with 1000 rpm shaking. Software V2.0 (Gator Bio) was used for data analysis. The on-rate (Kₒₙ) and off-rate (Kd) were determined by fitting of the association and dissociation phases of each sample. The mathematical model used assumes a 1:1 stoichiometry, fitting only one analyte in solution binding to one binding site on the surface. The equilibrium dissociation constant (KD), a measure for affinity, was then calculated as the ratio of Kd and Kₒₙ.

murine serum albumin = biological target: T6, murine serum albumin (murine, UniProt P07724 25-608); experiment: BLI (Gator), His-tagged VHH on anti-His sensor, murine serum albumin 100 nM in solution
T6 construct: As antigen 'MSA' means murine serum albumin; the VHHs also carry the label MSA; also called MSA
Method: as §3

T2 sequence (P25942 21-193 limits assumed): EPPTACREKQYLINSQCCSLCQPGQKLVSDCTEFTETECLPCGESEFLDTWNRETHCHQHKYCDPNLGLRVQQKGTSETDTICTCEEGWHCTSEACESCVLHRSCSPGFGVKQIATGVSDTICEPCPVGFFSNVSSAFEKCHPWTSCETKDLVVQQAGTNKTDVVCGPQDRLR
T1 sequence (P25942 21-193): as the sequence (P25942 21-193 limits assumed) above
T3 sequence (Q07011 24-183): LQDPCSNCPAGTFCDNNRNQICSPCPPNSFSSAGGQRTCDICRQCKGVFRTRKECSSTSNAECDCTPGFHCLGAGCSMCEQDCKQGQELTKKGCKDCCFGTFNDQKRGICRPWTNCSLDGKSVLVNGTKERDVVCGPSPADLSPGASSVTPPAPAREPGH
T4 sequence (Q07011 24-183 limits assumed): as the sequence (Q07011 24-183) above

| OD450 (4-1BB Fc [11]) | OD450 (4-1BB Fc [12]) | OD450 (4-1BB Fc [13]) | OD450 (4-1BB Fc [14]) | OD450 (4-1BB Fc [15]) | OD450 (4-1BB Fc [16]) | OD450 (4-1BB Fc [17]) | OD450 (4-1BB Fc [18]) | Kd (Human 41BB antigen (BLI)) [nM] | koff (Human 41BB antigen (BLI)) [s⁻¹] | kon (Human 41BB antigen (BLI)) [M⁻¹ s⁻¹] | Binder | further results |
| --- | --- | --- | --- | --- | --- | --- | --- | --- | --- | --- | --- | --- |
|  |  |  |  |  |  |  |  |  |  |  | pgDD40-SZ-5 (VHH, not shown: small tags and cut ends) VHH: QVQLVESGGALAQPGGSLRLSCEASENVRSVNAMAWYRQGPGKPRELVANITSGDATYYADSVKGRFTLSREGARNTVYLQMNSLKPEDTAVYQCNVHYTSWGGIRRDYWGRGTQVTVSS | OD450 [1]: 1.41; OD450 [2]: 1.68; OD450 [3]: 0.85; OD450 [4]: 1.73; OD450 [5]: 0.25; OD450 [6]: 1.67; OD450 [7]: 0.061; OD450 [8]: 0.085; OD450 [9]: 0.059; Kd [10]: < 0.001 nM; koff [10]: 1e-06 s⁻¹; kon [10]: 784000 M⁻¹ s⁻¹ |
| 2.89 | 3.08 | 1.69 | 2.7 | 0.397 | 0.203 | 0.181 | 0.129 | 0.781 | 0.000552 | 707000 | 4-1BB-56 (VHH, not shown: small tags and cut ends) VHH: QVQLVESGGGLVQTGGSLRLSCAASGRISTIDTMFWYRQTPGKERDWVAFIPKDGLPTYVDSVKGRFTVSRDNARNTVYLQMNGLKPEDTAVYYCAVDVQEDRMRTYWGQGTQVTVSS |  |
| 1.35 | 3.19 | 0.202 | 4.25 | 0.078 | 0.068 | 0.071 | 0.073 | 29.2 | 0.00919 | 314000 | 4-1BB-36 (VHH, not shown: small tags and cut ends) VHH: EVQLVESGGGLVQPGGSLRLSCAASRRTFSSYTAGWFRQAPGKEREFVASIRWISGTTTYADSVNGRFTISRDIAKNTVYLQMNSLKPDDTAVYYCAVDLSSDNDYDYWGQGTQVTVSS |  |
| 0.108 | 0.308 | 0.106 | 0.547 | 0.061 | 0.064 | 0.065 | 0.067 | 3.17 | 0.00264 | 834000 | 4-1BB-1 (VHH, not shown: small tags and cut ends) VHH: QVQLVESGGGLVQAGGSLRLSCAASENIFSFNAMAWYRQAPGKQRELVALITGDGTTKYADSVKGRFTIARLNAKNTVNLEMNSLKPEDTAVYTCAALRNSDRTSWGQGTQVTVSS |  |
| 0.07 | 0.129 | 0.059 | 0.112 | 0.067 | 0.063 | 0.058 | 0.065 | 2.57 | 0.00252 | 979000 | 4-1BB-2 (VHH, not shown: small tags and cut ends) VHH: QVQLVESGGGLVQAGGSLRLSCAASGSIFSYNAMAWYRQAPGKQRELVALITSDRTTKYADSVKGRFTISRDDTKNTVDLEMNSLKPEDTAVYTCAALLNSARTSWGQGTQVTVSS |  |
|  |  |  |  |  |  |  |  |  |  |  | pgDD40-SZ-3 (VHH, not shown: small tags and cut ends) VHH: QVQLVESGGGLVQAGDSLRLSCTASGRAFNTYTMAWFRQAPGKERDFVAAISRDGTITHYADSVKGRFTTTRDNAKNTMYLQMSSLKYDDTAVYYCAARRVGAVPERESAYEHWGQGTQVTVSS | OD450 [1]: 1.59; OD450 [2]: 1.64; OD450 [3]: 1.02; OD450 [4]: 1.64; OD450 [5]: 0.287; OD450 [6]: 1.57; OD450 [7]: 0.055; OD450 [8]: 0.098; OD450 [9]: 0.055; Kd [10]: 0.106 nM; koff [10]: 7.65e-05 s⁻¹; kon [10]: 722000 M⁻¹ s⁻¹ |
|  |  |  |  |  |  |  |  |  |  |  | MSA B1 (VHH, Llama single domain antibody with C-terminal His-tag, made in HEK293; not shown: C-terminal His-tag) VHH: EVQLVESGGGLVQPGGSLHLSCAASRLTTGVTFSDYGMAWFRQAPGAERELLANINWSGQYTNYRDSVKGRAAIFRDNAKNTLYLNINSLKAEDTAVYYCAASSRKYGPGIKSQYEWWGQGTQVTVSS | Kd (human serum albumin): 11.3 nM; koff (human serum albumin): 0.00511 s⁻¹; kon (human serum albumin): 454000 M⁻¹ s⁻¹; Kd (murine serum albumin): 5.32 nM; koff (murine serum albumin): 0.000605 s⁻¹; kon (murine serum albumin): 114000 M⁻¹ s⁻¹ |
|  |  |  |  |  |  |  |  |  |  |  | MSA1 (VHH, Llama single domain antibody with C-terminal His-tag, made in HEK293; not shown: C-terminal His-tag) VHH: EVQLVESGGGLAQAGGSLRLSCADSGHSFSLYAMAWFRQTPEKEREFVAAISSSGGDTYYADSVKGRFTISRENAKNTAYLQMDSLKPGDTAVYFCAGNYYTSQLMRGMYEHWGQGTQVTVSS | koff (human serum albumin): 0.0217 s⁻¹; Kd (murine serum albumin): 6.64 nM; koff (murine serum albumin): 0.00117 s⁻¹; kon (murine serum albumin): 176000 M⁻¹ s⁻¹ |
| 0.07 | 0.065 | 0.059 | 0.098 | 0.068 | 0.064 | 0.072 | 0.063 |  |  |  | 4-1BB-39 (VHH, not shown: small tags and cut ends) VHH: QVQLGSLGGGSAQPGGSLRLSCTGSGNVYDFVVMGWYRQFPGRQRELVANITGRASPNYVDSVKGRFTISRDNAQNTVHLQMNNLKVEDSAIYYCYAAQQLTTIAGVMTLDYWGSGTQVTVSS |  |
| 0.828 | 1.76 | 0.11 | 1.58 | 0.065 | 0.066 | 0.068 | 0.068 | 0.657 | 0.000539 | 820000 | 4-1BB-10 (VHH, not shown: small tags and cut ends) VHH: EVQLVESGGGLVQAGGSLRLSCAASGAIFSYNGMAWYRQAPGKQREFVAVITPDGTTKYGDSVKGRFTISRDITKNTVDLEMNSLKPEDTAVYTCAALRNSGSTSWGQGTQVTVSS |  |
| 0.089 | 0.183 | 0.065 | 0.165 | 0.06 | 0.067 | 0.062 | 0.066 | 1.82 | 0.00129 | 708000 | 4-1BB-3 (VHH, not shown: small tags and cut ends) VHH: EVQLVESGGGLVQAGGSLRLSCAASGNIFSYNGMAWYRQAPGNQRELVAVVAIDGTAKYADTVKGRFTISRDNIKNTVNLEMNSLKPEDTAVYTCAALRNSGSTSWGQGTQVTVSS |  |
|  |  |  |  |  |  |  |  |  |  |  | pgDD40-SZ-12 (VHH, not shown: small tags and cut ends) VHH: EVQLVESGGGLVQPGGSLKLSCAASGFAFSRYTMSWVRQAPGKGLEWVSGIDSGGGRTSYINSVKGRFTISRDNAKNTLYLQMNSLKPEDTAVYHCAQGGDSGSYYRTSWGQGTQVTVSS | OD450 [1]: 0.09; OD450 [2]: 0.256; OD450 [3]: 0.061; OD450 [4]: 0.895; OD450 [5]: 0.059; OD450 [6]: 1.54; OD450 [7]: 0.058; OD450 [8]: 0.065; OD450 [9]: 0.06; Kd [10]: 1.43 nM; koff [10]: 0.000806 s⁻¹; kon [10]: 564000 M⁻¹ s⁻¹ |
| 0.084 | 0.292 | 0.061 | 0.264 | 0.065 | 0.064 | 0.067 | 0.07 | 4.55 | 0.00276 | 606000 | 4-1BB-9 (VHH, not shown: small tags and cut ends) VHH: QVQLVESGGGLVQAGGSLRLSCAASGSIFSYNAVAWYRQAPGKQRELVAVITSGGETTKYADSVKGRFTISRDITKNAVDLQMVSLKPEDTAVYTCAALRNSGSTSWGQGTQVTVSS |  |
